B1: Coronatine-insensitive protein 1 (Arabidopsis thaliana (Mouse-ear cress)), O04197 (parent)
chain: MEDPDIKRCKLSCVATVDDVIEQVMTYITDPKDRDSASLVCRRWFKIDSETREHVTMALCYTATPDRLSRRFPNLRSLKLKGKPRAAMFNLIPENWGGYVTPWVTEISNNLRQLKSVHFRRMIVSDLDLDRLAKARADDLETLKLDKCSGFTTDGLLSIVTHCRKIKTLLMEESSFSEKDGKWLHELAQHNTSLEVLNFYMTEFAKISPKDLETIARNCRSLVSVKVGDFEILELVGFFKAAANLEEFCGGSLNEDIGMPEKYMNLVFPRKLCRLGLSYMGPNEMPILFPFAAQIRKLDLLYALLETEDHCTLIQKCPNLEVLETRNVIGDRGLEVLAQYCKQLKRLRIERGADEQGMEDEEGLVSQRGLIALAQGCQELEYMAVYVSDITNESLESIGTYLKNLCDFRLVLLDREERITDLPLDNGVRSLLIGCKKLRRFAFYLRQGGLTDLGLSYIGQYSPNVRWMLLGYVGESDEGLMEFSRGCPNLQKLEMRGCCFSERAIAAAVTKLPSLRYLWVQGYRASMTGQDLMQMARPYWNIELIPSRRVPEVNQQGEIREMEHPAHILAYYSLAGQRTDCPTTVRVLKEPI
partner: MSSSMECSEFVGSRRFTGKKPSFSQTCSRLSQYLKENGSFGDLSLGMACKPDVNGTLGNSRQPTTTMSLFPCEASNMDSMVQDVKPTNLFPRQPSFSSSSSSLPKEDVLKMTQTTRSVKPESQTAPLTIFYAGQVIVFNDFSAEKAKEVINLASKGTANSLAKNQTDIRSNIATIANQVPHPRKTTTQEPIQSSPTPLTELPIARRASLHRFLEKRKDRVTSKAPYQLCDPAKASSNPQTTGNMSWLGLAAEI

Variants of: B1
Conditions: with ti10a_arath TIFY10A

effect of a mutation on the interaction	Variant
disrupting interaction	R409A
disrupting interaction	Y386A
disrupting interaction	R351A
disrupting interaction	R326A
disrupting interaction	Y444A
disrupting interaction	R348A
disrupting interaction	L469A
disrupting interaction	R496A

The remaining lines, values behind:

Variant	effect of a mutation on the interaction
M88A	disrupting interaction
F89A	disrupting interaction
R85A	disrupting interaction
R121A	disrupting interaction
Y302A	disrupting interaction
L301A	disrupting interaction
